This note sets out measurements from paper PMC11480844 (2024).

B1: H2-Kb / Ed23 (parent complex)
chain 1: QQKVQQSPESLTVSEGAMASLNCTFSDRSSDNFRWYRQHSGKGLEVLVSIFSDGEKEEGSFTAHLNRASLHVFLHIREPQPSDSALYLCAVRGFWTNKVVFGTGTRLQVLP
chain 2: AQTIHQWPVAEIKAVGSPLSLGCTIKGKSSPNLYWYWQATGGTLQQLFYSITVGQVESVVQLNLSASRPKDDQFILSTEKLLLSHSGFYLCAWSPRQSSYEQYFGPGTRLTVL
chain 3: not shown
chain 4: IQKTPQIQVYSRHPPENGKPNILNCYVTQFHPPHIEIQMLKNGKKIPKVEMSDMSFSKDWSFYILAHTEFTPTETDTYACRVKHDSMAEPKTVYWDRDM
chain 5: SIINFEKL
B2: H2-Kb / Ed9 (parent complex)
chain 1: AQSVTQPDARVTVSEGASLQLRCKYSYFGTPYLFWYVQYPRQGLQLLLKYYPGDPVVQGVNGFEAEFSKSNSSFHLRKASVHWSDWAVYFCAVSITGGYKVVFGSGTRLLVSP
chain 2: DSGVVQSPRHIIKEKGGRSVLTCIPISGHSNVVWYQQTLGKELKFLIQHYEKVERDKGFLPSRFSVQQFDDYHSEMNMSALELEDSAMYFCASSPRQSDYTFGSGTRLLVI
chain 3: not shown
chain 4: B1 chain 4
chain 5: SIINFEKL
Also: test concentration or dose not given here.

The variants in the first assay derive from B1. The assay can be described thus: % of reporter cells activated (NFAT-GFP), raw.
For chain 5 N4V, the ratio to parent is 0.207.
The same measure, in the same setting: for chain 5 N4I the value was 0.277; for chain 5 N4Y, 0.813.
As for chain 5 N4F, the ratio to parent was 0.586.
Consider chain 5 N4S, for which the ratio to parent stood at 0.42.
Same read-out and setting: with chain 5 N4R the figure was 1.22; with chain 5 N4W, 1.13; with chain 5 N4H, 1.04.
On the same count and under the same terms, with chain 5 N4K the figure was 0.869.
With chain 5 N4E, the ratio to parent was found to be 0.415.
For the variant chain 5 N4A, the ratio to parent amounted to 0.18.
Same read-out and setting: for chain 5 N4T the value was 0.342; for chain 5 N4M, 0.269.
Still for that read-out and setting: with chain 5 N4D the figure was 0.0424; with chain 5 L8R, 1.26.
chain 5 L8V: the ratio to parent stood at 0.856.
Same read-out and setting: for chain 5 L8I the value was 1.15; for chain 5 L8K, 1.23; for chain 5 L8N, 1.05.
On the same count and under the same terms, with chain 5 L8Y the figure was 1.24; with chain 5 L8G, 1.11; with chain 5 L8P, 1.24.
Regarding chain 5 L8F, the ratio to parent turned out to be 1.13.
Still for that read-out and setting: for chain 5 L8Q the value was 1.21; for chain 5 L8W, 0.934; for chain 5 L8C, 1.06.
Same read-out and setting: with chain 5 F5K the figure was 1.19; with chain 5 F5E, 0.937.
Same read-out and setting: for chain 5 F5R the value was 1.28.
Take chain 5 F5S: the ratio to parent turned out to be 1.19.
Consider chain 5 F5G, for which the ratio to parent is 0.894.
The same measure, in the same setting: with chain 5 F5C the figure was 1.3.
As for chain 5 F5H, the ratio to parent was 1.37.
With chain 5 F5V, the ratio to parent was 1.33.
Consider chain 5 F5A, for which the ratio to parent came to 1.36.
Same read-out and setting: with chain 5 F5M the figure was 1.15.
Still for that read-out and setting: for chain 5 F5T the value was 1.33; for chain 5 F5P, 0.864.
On to chain 5 F5N, for which the ratio to parent turned out to be 1.28.
In the case of chain 5 F5I, the ratio to parent came to 1.25.
Same read-out and setting: for chain 5 F5W the value was 1.08.
Take chain 5 F5D: the ratio to parent was determined as 0.997.
On the same count and under the same terms, for chain 5 F5Y the value was 1.32.
On the same count and under the same terms, for chain 5 S1H the value was 0.523; for chain 5 S1F, 0.207; for chain 5 S1R, 1.01.
The same measure, in the same setting: with chain 5 S1I the figure was 0.218; with chain 5 S1P, 1.46.
Turning to chain 5 S1V, the ratio to parent is 1.12.
As to chain 5 S1Y, the ratio to parent turned out to be 0.886.
With chain 5 S1T, the ratio to parent is 1.64.
Same read-out and setting: for chain 5 S1G the value was 0.896; for chain 5 S1D, 0.735.
The same measure, in the same setting: with chain 5 S1C the figure was 0.722.
As to chain 5 S1K, the ratio to parent turned out to be 0.558.
In the case of chain 5 S1N, the ratio to parent turned out to be 0.27.
chain 5 S1A: the ratio to parent was 1.26.
Same read-out and setting: for chain 5 I2R the value was 1.72; for chain 5 I2N, 1.49.
Same read-out and setting: with chain 5 I2Y the figure was 0.96; with chain 5 I2S, 1.12.
With chain 5 I2D, the ratio to parent turned out to be 1.31.
The same measure, in the same setting: with chain 5 I2H the figure was 1.36; with chain 5 I2A, 1.3; with chain 5 I2F, 1.21.
On the same count and under the same terms, with chain 5 I2M the figure was 1.46; with chain 5 I2G, 0.952.
For the variant chain 5 I2C, the ratio to parent stood at 1.38.
For the variant chain 5 I2L, the ratio to parent was 1.49.
On the same count and under the same terms, with chain 5 I2W the figure was 1.07; with chain 5 I2E, 1.39; with chain 5 I2P, 1.38.
On the same count and under the same terms, with chain 5 I2K the figure was 1.54; with chain 5 I2Q, 1.39.
Still for that read-out and setting: with chain 5 I2V the figure was 1.42.
As for chain 5 I3G, the ratio to parent was determined as 1.04.
Still for that read-out and setting: with chain 5 I3Y the figure was 0.17; with chain 5 I3V, 1.41; with chain 5 I3K, 0.952.
For the variant chain 5 I3Q, the ratio to parent came to 1.22.
The same measure, in the same setting: with chain 5 I3S the figure was 1.23; with chain 5 I3W, 0.975.
For the variant chain 5 I3D, the ratio to parent was 0.768.
Take chain 5 I3R: the ratio to parent was determined as 0.636.
The same measure, in the same setting: with chain 5 I3A the figure was 1.06; with chain 5 I3L, 1.4; with chain 5 K7N, 0.785.
On the same count and under the same terms, for chain 5 K7C the value was 0.919; for chain 5 K7F, 0.0793; for chain 5 K7T, 0.145.
The same measure, in the same setting: for chain 5 K7W the value was 0.975; for chain 5 K7V, 0.48; for chain 5 K7M, 1.12.
Consider chain 5 K7R, for which the ratio to parent is 1.42.
Still for that read-out and setting: for chain 5 K7P the value was 0.798; for chain 5 K7A, 0.598.
Same read-out and setting: for chain 5 K7S the value was 1; for chain 5 K7H, 0.333.
On the same count and under the same terms, with chain 5 K7G the figure was 1.18.
chain 5 K7L: the ratio to parent stood at 0.477.
For the variant chain 5 E6V, the ratio to parent amounted to 0.0859.
Still for that read-out and setting: for chain 5 E6H the value was 0.551; for chain 5 E6T, 0.0505; for chain 5 E6W, 0.0503.
Same read-out and setting: with chain 5 E6L the figure was 0.0247.
Same read-out and setting: with chain 5 E6S the figure was 0.0871; with chain 5 E6F, 0.147.
As for chain 5 E6M, the ratio to parent was 0.486.
For the variant chain 5 E6K, the ratio to parent was 1.14.
On the same count and under the same terms, for chain 5 E6Y the value was 0.588; for chain 5 E6A, 0.157; for chain 5 E6G, 1.28.
On to chain 5 E6N, for which the ratio to parent was found to be 0.0348.
On the same count and under the same terms, for chain 5 E6R the value was 0.316.
Take chain 5 E6P: the ratio to parent amounted to 0.0439.
Same read-out and setting: with chain 5 E6I the figure was 0.0187; with chain 5 E6Q, 0.604; with chain 5 E6D, 0.828.

Variants of B2 are the subject of a further assay. In words: % of reporter cells activated (NFAT-GFP), raw.
For chain 5 S1I, the ratio to parent came out at 0.0106.
Regarding chain 5 S1D, the ratio to parent worked out at 0.125.
Still for that read-out and setting: for chain 5 S1V the value was 0.0112.
As to chain 5 S1P, the ratio to parent was 0.0373.
With chain 5 N4Q, the ratio to parent is 0.0236.
For chain 5 N4P, the ratio to parent came out at 0.0766.
Same read-out and setting: for chain 5 N4A the value was 0.0077; for chain 5 N4V, 0.0308; for chain 5 N4S, 0.0154.
For chain 5 N4E, the ratio to parent turned out to be 0.00953.
Still for that read-out and setting: for chain 5 N4F the value was 0.012.
For the variant chain 5 K7T, the ratio to parent was found to be 0.957.
The same measure, in the same setting: for chain 5 K7E the value was 0.226; for chain 5 K7M, 0.546; for chain 5 L8S, 0.899.
Take chain 5 L8T: the ratio to parent is 1.09.
Same read-out and setting: for chain 5 L8N the value was 0.883; for chain 5 L8K, 1.09.
The same measure, in the same setting: with chain 5 L8W the figure was 1; with chain 5 L8F, 1.14.
Turning to chain 5 L8G, the ratio to parent came out at 1.
The same measure, in the same setting: for chain 5 L8Y the value was 1.23; for chain 5 L8I, 1.17; for chain 5 E6Y, 0.0945.
In the case of chain 5 F5N, the ratio to parent was found to be 1.15.
With chain 5 F5Y, the ratio to parent amounted to 1.22.
With chain 5 F5S, the ratio to parent turned out to be 1.31.
Regarding chain 5 F5E, the ratio to parent is 1.03.
Turning to chain 5 I3A, the ratio to parent was 0.184.
For chain 5 I3Y, the ratio to parent was 0.0606.
On the same count and under the same terms, with chain 5 I2Q the figure was 0.82; with chain 5 I2F, 1.13.
